# Data from the DeepSol protein solubility set.
# Assay: soluble on expression in E. coli; label from the status in PepcDB or PDB records
row,Sequence,soluble on expression in E. coli
1,MSLPAGPSMACQKGTSTWAKAERPRSAKGRSFRMARILLPFSATMGGSRLQWEGMAASHALKPILELLPEELPGEGYRRAQIAHWLYAKGARDFSEMTDLPKALREALAREWRLSEFSLVQAFPSQDGSVKYLFTLLDGKKTEAVYMPYENRKTVCLSTMVGCPAGCTFCATGALGFGRNLTAAEILDQLLTIAYHQGLSPREIRNVVLMGMGEPLLNLRNVLKAVRIMLHKKALALSPRRVTLSTVGIPKGIYRLAEEDLGVRLALSLHAPDDETRRKIIPTAHRYPIAEIMEAVRHYHAKTKRRVTFEYTLLKGVNDHLWQARLLAKLLKGLSAHVNLIPFNPWEGAPVVGTPRAGVLAFAEELKRLGVPTSIRWSRGQDVGAACGQLALKVPRPLTLTPLPGGAGR,soluble
2,MSLPANKLVFVGGMGAGKTTAVRAISDVEPVSTEMPLSQDAYGDKTYTTVALDYSSIELEDGELLHVYGVPGQKYLDFMWPLVCDGALGVIVLTSARDTQMRDTTLELLREFSRITPEASLAVGVTMTDEVQEFLLPPFREALVAEGFRIPVMRVDARSATQITFLVKTLLSYRYTSAPVLEHHHHHH,soluble
3,MSLPINDQRFNGEDWINNPFFNLLSQHYLLANEHMNSLLENMEYGDENLAKRVRFFTRQYLDALSPANFIHTNPQLMAETLQSHGKNLLRGLHNLLSDVEAGSSRLIIKMTDTEAFKIGENLATTPGKVIFRNSMMELIQYCPRTTKAKSIPLLIVPPWINKYYILDLSPHNSLIRWLVEQGITVFIISWVNPDEEGHHHHHH,not soluble
4,MSLPTTSSPLTNDQEFAKPVRNGKIFENPKSFTNWGGRPGLTNIFKLVLRETSHENLPSDKKVLDSTLPVHNITADDFHSESGLFATWLGHATVLVDLEGVKFVTDPVWADRASFTSFAGPKRYRPPPMKLEDLPDLDFAVVSHDHYDHLDADAVKRITNLNPQIKWFVPLGLKKWMKNQGIGADGSNTVTELNWGESSEFVKNGKTITIWCLPAQHSGQRGLSDHNHRLWSGWAVIGENRRFYFPGDTGFCDVEFKKIGEKLGPFDLAAIPIGAYEPRWFMKSHHINPDEAVEVHKLVRARNSIGIHWGTYPMGTTEYYLEPRDKLKELMDAREDLKDTSFVTVDMGEIWEASDR,not soluble
5,MSLQCDDCKTKLMPLVAHEVDHIDNRRDVAGDLDDSPDNLRAVNRDCHRRITMRQIAEAGAVGTMAPVWMPITQKPLTVVVGPPSAGKSTWVKAAAKASDLVIDLDILAPTVIGKPMWIADSRERSLVIRERNSLVAEYMRGKTAHPHCFLIDTAGSFKRRKFWLDRGADVVLLDTDKDICRARIRQCSARPESTRAGRLAAVDRWEEGHHHHHH,not soluble
6,MSLQDIYGTLANLNTKLKQKLSHPYLAKHISAPKIDEDKLLLFHALFEEADIKNNDRENYIVTAMLVQSALDTHDEVTTARVIKRDENKNRQLTVLAGDYFSGLYYSLLSEMKDIYMIRTLATAIKEINEHKIRLYDRSFKDENDFFESVGIVESALFHRVAEHFNLPRWKKLSSDFFVFKRLMNGNDAFLDVIGSFIQLGKTKEEILEDCFKKAKNSIESLLPLNSPIQNILINRLKTISQDQTYHQKVEEGEGHHHHHH,soluble
7,MSLQEVITLKVIGPWSGAELDAFMEVLKAFEKQHPNIKIEYKTYRAEDLSTILPLQFESHDTPADVIFMWGWFIAEMGKKGHLMELNNIINPEEYVPGILDSVTVDGKIYGAPFTAAAKPGFWYRKSFFEKHNLKPPKTWDDFVALLEEIKKIPGIKAPIVSGDSVGWPLSDVTEHFILTFGGKDLQLKLIKGEVKWEDPQVRKIFEEKLVPLLKAGYFSDPIEWTSAVDLWWKGEYALYFMGTWITGMVDDPNDLGLIPLPGVKAMVIAPDYLMVPKYTSHPKEALELAKFLATEGQRIHVGTKSGKLATWKKVSIDDYWAPMRDVAKIVANVESAPDLDDSVGGEWQKVFWDQLKLLWVQPDRLDEVLKTLDEKFPKEGHHHHHH,soluble
8,MSLQEVKKTYFVSKPGTLISMMTEEEANQVTHLTLTGKINAVDFRHLRDEFKNLQVLDIANASISMYSGKEGTYPDKFYIYMPNFVPAYAFCKMENGTAKGKSTLKKIILSEKIKNIEDAAFMGCENLNICQIKKKTPPNLLPEALADSITAIFVPLGASDEYRLKNRWDNFAFIEGEPLEAKIEVGALSTLENEIQKAGLQPKEINFLTIEGKLDAADFKLIRDYMPNLVAVDIEKTNATAIPDFTFSQKKYLLRIRLPHGLKSIGQRAFSNCGRLCGTVELPESITAIEYGAFMGCDRLRYVVAHGDKITTIGDNLFGEGKNKLIYKREGHHHHHH,soluble
9,MSLQFEGDTITYVGTGRPASDEIIDATGKVVMPGFINTHAHVGMSASKGLFDDVDLERFLDMTFKYDSQRTEEGIFNSARLGMYEMINSGITSFVDLYYSENVIARAAEQVGIRAFLSWVTLDREFTTQKGDPLDNAENFIRSHQNMRFVKPSVGVQGIYVASDETYQRAKEIAERYDTIMHMHLSETRKEVYDSVKKIGERPIEHLDKIGVLSSRVIAAHCVWATYHEAKLLGKNGVNVSWNAVSNFKLATGGVPPVPEMLDAGVNITIGTDSNGSNNSLNFFEAMKFSALTVKNARWDASIIKSQQILDFATIDAAKALRLNAGSIEVGKKADIVILDARRPELIPTDKNNVVNNIVYSTNPASVDSVIIDGVFRKKGGRLIGFDEGGVASANVFVEGHHHHHH,not soluble
10,MSLQIKFIDLFSGMSGIRKGFEQACRKQSVACECVFTSEIKPAALEVLKQNYPDEVPYGDITKIETGDIPDFDILLAGFPCQAFSFAGKRLGFEDTRGTLFFDVARILKAKKPKGFILENVEGLVTHDRKDPTQKIGRTLTVILETLETLGYYVSWKVLNAKDFGIPQNRKRIYLTGSLKSKPDLSFETTLSPKLKNILESGLPTESSPFIKKLLKKFPPSELYGKSVKDKRGGKNNIHSWDIELKGTVTEEEKQLLNMLLKERRKKKWASEIGIDWMDGMPLTKAQISTFYKHPNLQNILDSLTDKGYLVLEHPKQKIGGRRIKDESLPKGYNIVSGKKSFEINKILDPNDVAPTLVAMDMEHLFVVDNGGLRTLTGKEGLRLFGYPDDYSFDIPKKDKYDLLGNTVAVPVIKAVSERLLHTLEGHHHHHH,soluble
11,MSLQLSNFLELERADTFENVERVQNAVATEQSYLDYIVQDWACWDDTYQFIEDKNPEYIRVDLQNQTLSGINVNVMIFVNNSGKVVYVKSVNTSTAEEAPVPRKLLAMIEDGGLLTEGENDSISGFVLLDEDPMFIACHPILTTKYEGPSRGTLIFGRYFDDALLESFKKVTRSSLLMYRADEEMPQDFQNKIKNFSQNSDNIVVDPLNKNQIAGYFGLKDIKGDIALILRADFPREGHHHHHH,soluble
12,MSLQMKPEDILENIFYFRVCSYTEQIALVNHLEKFISENKDVKVVIVDSITFHFRQDYDDLAQRTRVLSEMALKFMKLAKKFSLAVVLLNQVTTKFSEGSFQLALALGDSWSHSCTNRVILYWNGDERYAYIDKSPSLPSASASYTVTSRGLRNSSEGHHHHHH,not soluble
13,MSLQNPFVPQLVYIEPRALEYPLGQELQDKFENMGIEIRETTSHNQVRNIPGKNHLQQYRNAKSTLVIGVRKTLKFDSSKPSAEYAIPFATGCMGHCHYCYLQTTMGSKPYIRTYVNVEEILDQADKYMKERAPEFTRFEASCTSDIVGIDHLTHTLKRAIEHFGQSDLGKLRFVTKFHHVDHLLDAKHNGKTRFRFSINADYVIKNFEPGTSPLDKRIEAAVKVAKAGYPLGFIVAPIYIHEGWEEGYRHLFEKLDAALPQDVRHDITFELIQHRFTKPAKRVIEKNYPKTKLELDEEKRRYKWGRYGIGKYIYQKDEEHALREALESYIDTFFPNAKIEYFTEGHHHHHH,soluble
14,MSLQQAVGMYVEAPTPDEAARLINSGRKLGIVIAVGVCEVFYTGRAAASLGPTRRLVILKRDGTLLVHEAEKAQPKIWNPPGSSTAAYVEGGKLVVKSIRSRPFETVRVIFDKVDFIAAFDVGATELTLVGSERDVVGALVKNPSIIEEGLEVVGVEVPTDVGHLDILARDKNGRYVIIEVKRDLATHEAVFQLARYVELYRRKGYDVRGILVAGDITASAYDYLKRYGLNFVKINPRELMVLTNKNPLNAKEGHHHHHH,soluble
15,MSLQTIEEMDAYPAVDDSGDHLLDPNMIPTAATEVVMSGDGIERQFGDEEDTYQYEYTYEDDPQLEIGEEEVVVTDEAEYQEHWKDEEK,not soluble
